Legend:
[1] = target: T1, CC1H, major antigenic region of PLA2R (human, UniProt Q13018 21-367); assay: indirect ELISA, CC1h coated at 2 ug/mL, anti-human IgG Fc HRP
T1 construct: Secreted from CHO-S cells, purified on Ni column; also called CCIh
Description: 30 μL of CC1h (2 μg/mL, diluted with 1*PBS) was added to the reaction wells of the ELISA plate, and the plate was sealed and incubated at 4° C. overnight. The plate was washed with PBST for 3 times, and the liquid in the wells was discarded. 5% PBSM was added to block the ELISA plate at room temperature for 2 hours. The plate was washed with PBST for 3 times by adding 30 μL of Abs (diluted with 1*PBS) to each well of the ELISA plate, and the plate was incubated at room temperature for 60 min. The plate was washed with PBST for 3 times, 30 μL of anti-human IgG Fc HRP (diluted with 1% PBSM at a ratio of 1:8000) was added to each well, and incubated at room temperature for 60 min. TMB was added and the reaction was stopped with 2M blocking solution and the OD value was detected at 450 nm. Recombinant Ipilimumab (Sanyou Biopharmaceuticals Co., Ltd.) was used as a negative control. The test results were illustrated in Table 2 as well as FIG. 4 and FIG. 5.

CC1H-Biotin = target: T2, CC1H-Biotin (human, UniProt Q13018 21-367, biotin by EZ-Link Sulfo-NHS-LC-Biotin, 1.80 mol Biotin/mol protein; sites not given); assay: BLI (Octet N1), CC1H-Biotin on SA sensor, antibody 76.6-8.5 nM
T2 construct: also called biotin-labeled CC1H
Description: Sartorius Octet® N1 molecular interaction instrument was used, the SA sensor (Sartorius, Octet® Streptavidin (SA) Biosensor, 18-5019) was selected.
The sensor was immersed in a PBSTB buffer (0.02% Tween-20 and 0.1% BSA were added in the PBS buffer) to be pre-wetted for 10 min or longer, and loaded onto the molecular interaction instrument.
The association constant (Ka), dissociation constant (Kd), and affinity constant (KD) were calculated and illustrated in Table 5 for details.

Row | EC50 [1] [ng/mL] | Kd (CC1H-Biotin) [nM] | koff (CC1H-Biotin) [s⁻¹] | kon (CC1H-Biotin) [M⁻¹ s⁻¹] | Binder
1 | 7.17 |  |  |  | B117 (antibody, human IgG4, kappa, V domains shown, also called P59394) VH: EVQLLESGGGLVQPGGSLRLSCAASGFTFSSYSMNWVRQAPGKGLEWVSYISSSSSTIYYADSVKGRFTISRDNAKNSLYLQMNSLRDEDTAVYYCARDRTLGYWGQGTLVTVSS VL: NIQLTQSPSSVSASVGDRVTISCRASQGIGRWLAWYQQKPGKAPKLLIYAASNLQSGVPSRFSGSGSGTDFTLTISSLQPEDFATYYCQQANSFPRTFGPGTKVDIKR
2 | 10.5 | 0.242 | 0.000125 | 516000 | B156 (antibody, human IgG4, kappa, also called P59397) heavy: not shown light: DIQLTQSPSSLSASIGDRVTITCRASQGISSFLAWYQQKPGKAPQLLIYAASTLQSGVPSRFSGSGSGTEFTLTISSLQPEDFATYYCQQFKIYPLTFGGGTKVEVKRTVAAPSVFIFPPSDEQLKSGTASVVCLLNNFYPREAKVQWKVDNALQSGNSQESVTEQDSKDSTYSLSSTLTLSKADYEKHKVYACEVTHQGLSSPVTKSFNRGEC
3 | 4.6 | 0.0178 | 1.89e-05 | 1.06e+06 | A61 (antibody, human IgG4, kappa, also called P59375) heavy: not shown light: DIVMTQSPLSLPVTLGQPASISCRSSQSLVKSDGNTYLSWFQQRPGQSPRRLIYKVSNRDSGVPDRFSGSGSGTDFTLKISRVEAEDVGVYYCMQGTHWPPTFGPGTKVDIKRTVAAPSVFIFPPSDEQLKSGTASVVCLLNNFYPREAKVQWKVDNALQSGNSQESVTEQDSKDSTYSLSSTLTLSKADYEKHKVYACEVTHQGLSSPVTKSFNRGEC
4 | 10.3 | 0.126 | 8.17e-05 | 648000 | A61 (IgG4SP) (antibody, IgG4SP (S228P in the hinge, already in the heavy chain entry); also called A61SP; P62298) heavy: not shown light: DIVMTQSPLSLPVTLGQPASISCRSSQSLVKSDGNTYLSWFQQRPGQSPRRLIYKVSNRDSGVPDRFSGSGSGTDFTLKISRVEAEDVGVYYCMQGTHWPPTFGPGTKVDIKRTVAAPSVFIFPPSDEQLKSGTASVVCLLNNFYPREAKVQWKVDNALQSGNSQESVTEQDSKDSTYSLSSTLTLSKADYEKHKVYACEVTHQGLSSPVTKSFNRGEC
5 | 4.81 |  |  |  | A8 (antibody, human IgG4, kappa, V domains shown, also called P59367) VH: QVQLVQSGAEVKKPGSSVKVSCKASGGTFSSYAISWVRQAPGQGLEWMGGIIPIFGTANYAQKFQGRVTMTRDTSTSTVYMELSSLRSEDTAVYYCARDSDFWSGYSSMDVWGQGTTVTVSS VL: DIVMTQSPLSLPVTLGQPASISCRSSQSLVHSDGNTYLNWFQQRPGQSPRRLIYKVSNRDSGVPDRFSGSGSGTDFTLKISRVEAEDVGVYYCMQGTQWPDTFGQGTKLEIKR
6 | 6.38 |  |  |  | B109 (antibody, human IgG4, kappa, V domains shown, also called P59392) VH: EVQLLESGGGLVKPGGSLRLSCAASGFTFSSYSMNWVRQAPGKGLEWVSSISSSSSYIYYADSVKGRFTISRDNAKNSLYLQMNSLRDGDTAIYYCVRRLWEAPGIGPFDVWGHGTMVTVSS VL: not shown
7 | 7.71 |  |  |  | B83 (antibody, V domains shown, also called P59389) VH: EVQLLESGGGLVQPGGSLRLSCAASGFTFSSYAMSWVRQAPGKGLEWVSAISGSGGRTYYADSVKGRFTISRDNSKNTLYLQMNSLRAEDTAVYYCARVLQYSGTDDLDVWGRGTLVTVSS VL: not shown
8 | 8.09 |  |  |  | B123 (antibody, human IgG4, kappa, V domains shown, also called P59395) VH: QVQLQQWGAGLLKPSQTLSLTCTVSGGSISSGGYYWSWIRQHPGKGLEWIGYIYYSGSTYYNPSLKSRVTISVDTSKNQFSLKLSSVTAADTAVYYCARWDRVREGGRFSNAFDIWGQGTMVTVSS VL: NIQLTQSPSSLSASVGDRVTITCRASQGISTYLAWYQQKPGLAPKLLIYGASTLQSGVPSKFSGFGSGRDFTLTISSLQPEDIATYYCQQLNTYPPTFGQGTKLEIKR
9 | 27.6 |  |  |  | A23 (antibody, human IgG4, kappa, V domains shown, also called P59371) VH: QVQLVQSGAEVKKPGSSVKVSCKASGGTFSSYAISWVRQAPGQGLEWMGGIIPIFGTANYAQKFQGRVTITADESTSTAYMELSSLRSEDTAVYYCARGGGGRGMTSDWGQGTLVTVSS VL: NIQLTQSPSSLSASVGDRVTITCRASQDISNYLAWFQQKPGKAPKSLIYAASSLQSGVPSRFSGSWSGTDFTLTISSLQPEDIATYYCQQYKRYPFIFGQGTKLEIKR
10 | 16 |  |  |  | A26 (antibody, human IgG4, kappa, V domains shown, also called P59372) VH: not shown VL: DIVMTQSPLSLPVTPGEPASISCRSSQSLLHSNGRNYLDWYLQKPGQSPQLLIYLGSNRASGVSDRFSASGSGTDFTLQISRVEAEDVGIYYCMQALQTPWTFGQGTKVEVKR
11 | 6.9 | 0.158 | 0.000102 | 644000 | A156 (antibody, human IgG4, kappa, also called P59378) heavy: not shown light: AIQLTQSPSSLSASVGDRVTITCRASQGISSYLAWYQQKPGKAPKLLIFAASLLQRGVPSRFSGSGFGTDFTLTISGLQPEDFATYFCQQFNTYPITFGGGTKVEIKRTVAAPSVFIFPPSDEQLKSGTASVVCLLNNFYPREAKVQWKVDNALQSGNSQESVTEQDSKDSTYSLSSTLTLSKADYEKHKVYACEVTHQGLSSPVTKSFNRGEC
12 | 14.7 | 0.456 | 0.000169 | 371000 | A156 (IgG4SP) (antibody, IgG4SP (S228P in the hinge, already in the heavy chain entry); also called A156SP; P62300) heavy: not shown light: AIQLTQSPSSLSASVGDRVTITCRASQGISSYLAWYQQKPGKAPKLLIFAASLLQRGVPSRFSGSGFGTDFTLTISGLQPEDFATYFCQQFNTYPITFGGGTKVEIKRTVAAPSVFIFPPSDEQLKSGTASVVCLLNNFYPREAKVQWKVDNALQSGNSQESVTEQDSKDSTYSLSSTLTLSKADYEKHKVYACEVTHQGLSSPVTKSFNRGEC
13 | 8.49 |  |  |  | A21 (antibody, human IgG4, kappa, V domains shown, also called P59369) VH: EVHLVESGPELVRPGASVTLSCKASGYTFTDYEMHWVKQTPVHGLEWIGAIDPETGGTAYNQKFKGKATLTADKSSSTAYMELRSLTSEDSAVYYCTTTYGNYWYFDVWGAGTLVTVSS VL: DIQLTQSPSSVSASVGDRVTITCRASQNIENWLAWYQQKPGKAPKLLIYATSRLENDVPSRFSGSRSGTEFILTISSLQPEDFATYYCHQANGFPWTFGPGTKVDIKR
14 | 6.52 |  |  |  | B114 (antibody, human IgG4, kappa, V domains shown, also called P59393) VH: EVQLLESGGGLVQPGGSLKLSCAASGFTFSGYAMHWVRQAPGKGLEWVAVISYDGSNKYYADSVKGRFTISRDNSKNTLYLQMNSLRAEDTAVYYCARGRGRGVFDYWGQGTLVTVSS VL: EIVLTQSPGTLSLSPGERATLSCRASQSVSKYLAWYQQKPGQAPRLLIYDVSNRATGIPARFSGSGSGTDFTLTISSLEPEDFAVYYCQQRRSWPLTFGGGTKVEIRR
15 | 8.88 |  |  |  | B201 (antibody, human IgG4, kappa, V domains shown, also called P59398) VH: EVQLVESGGGLVQPGGSLRLSCAASGFTFSSYAMHWVRQAPGKGLEWVSAISGSGDSTYYADSVKGRFSISRDNSKNTLYLQMNSLRAEDTAVYYCAKGSRRSGFNLFDYWGQGTLVTVSS VL: not shown
16 | 4.03 |  |  |  | A53 (antibody, human IgG4, kappa, V domains shown, also called P59374) VH: EVQLLESGPGLVKPSQTLSLTCTVSGGSISSGGYYWSWIRQHPGKGLEWIGYIYYSGSTYYNPSLKSRVTISVDTSKNQFSLKLSSVTAADTAVYYCARDSRGRSYGMDVWGQGTMVTVSS VL: DIQMTQSPSSLSASVGDRVTITCRASQSINNYLNWYQEKPGKAPKLLIYAASSLQSGVPSRFSGSGSGTDFTLTISSLQPEDFATYYCQQSYSYPFTFGPGTKVDIKR
17 | 2.96 | 0.841 | 0.000512 | 608000 | B90 (antibody, human IgG4, kappa, also called P59391) heavy: not shown light: DIQMTQSPSILSASVGDRVTLTCRASQSISSWLAWYQQTPGKAPRVLIYEASTLEVGVPSRFSGSGSGTDFTLTISSLQPEDFGTYFCQQYHTDSRTFGQGTILEIKRTVAAPSVFIFPPSDEQLKSGTASVVCLLNNFYPREAKVQWKVDNALQSGNSQESVTEQDSKDSTYSLSSTLTLSKADYEKHKVYACEVTHQGLSSPVTKSFNRGEC
18 | 19.5 | 6.59 | 0.000639 | 97000 | B90 (IgG4SP) (antibody, IgG4SP (S228P in the hinge, already in the heavy chain entry); also called B90SP; P62303) heavy: not shown light: DIQMTQSPSILSASVGDRVTLTCRASQSISSWLAWYQQTPGKAPRVLIYEASTLEVGVPSRFSGSGSGTDFTLTISSLQPEDFGTYFCQQYHTDSRTFGQGTILEIKRTVAAPSVFIFPPSDEQLKSGTASVVCLLNNFYPREAKVQWKVDNALQSGNSQESVTEQDSKDSTYSLSSTLTLSKADYEKHKVYACEVTHQGLSSPVTKSFNRGEC
19 | 5.74 |  |  |  | B307 (antibody, human IgG4, kappa, V domains shown, also called P59399) VH: QLQLQESGPGLVKPSQTLSLTCTVSGGSISSGGYYWSWIRQHPGKGLEWIGYIYYSGSTYYNPSLKSRVTISVDTSKNQFSLKLSSVTAADTAVYYCARMGRIAASNYYGMDVWGQGTTVTVSS VL: DIQLTQSPSFLSASVGDRVTITCRASQGISSQLAWYQQEPGKAPKLLIYAASTLQSGVPSRFSGSGSGTEFTLTISSLQPEDFATYYCQQVNAYPLTFGPGTKVDIKR
20 | 4.79 |  |  |  | A44 (antibody, human IgG4, kappa, V domains shown, also called P59373) VH: QVQLQESGPGLVKPSQTLSLTCTVSGGSISSGGYYWSWIRQHPGKGLEWIGYIYYSGSTYYNPSLKSRVTISVDTSKNQFSLKLSSVTAADTAVYYCARWGRGGSSWRFDIWGQGTMVTVSS VL: AIQMTQSPSSLSASVGDRVTITCRASQALTYTLAWYQQKPGKAPRLLIHDASSLESGVPSRFSGSGSGTDFTLTITSLQPEDFATYYCQQFRSYPLTFGGGTKVEIKR

— patent publication US20250340652A1 (CHENGDU DI AO PHARMACEUTICAL GROUP, published 2025)
